Source: article PMC4581524 (Journal of cellular biochemistry, 2015)
Changes are numbered by the printed parent chain. In names and notes the source's numbering stands. Blank lines part the entries; values can stand above or below the binder they belong to.

Biological target: T1, monomeric RANK (UniProt O35305 31-214)
T1 sequence (looked up): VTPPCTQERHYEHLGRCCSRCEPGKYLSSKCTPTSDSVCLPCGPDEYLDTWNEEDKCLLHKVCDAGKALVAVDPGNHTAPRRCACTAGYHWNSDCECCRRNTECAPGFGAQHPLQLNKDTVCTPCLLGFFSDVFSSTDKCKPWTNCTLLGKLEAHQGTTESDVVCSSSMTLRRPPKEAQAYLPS
Assay: SPR

B1: RANKL K194E (ligand)
chain: KPEAQPFAHLTINAASIPSGSHKVTLSSWYHDRGWAEISNMTLSNGKLRVNQDGFYYLYANISFRHHETSGSVPTDYLQLMVYVVKTSEKIPSSHNLMKGGSTKNWSGNSEFHFYSINVGGFFKLRAGEEISIQVSNPSLLDPDQDATYFGAFKVQDID
modifications: Homotrimer; limits by convention (mouse RANKL ectodomain core). Species inferred: the printed numbering fits mouse
Kd: 899 nM | koff: 0.101 s⁻¹ | kon: 113000 M⁻¹ s⁻¹

B3: RANKL Q236H (ligand)
chain: B1 chain with E37K, Q79H
modifications: Homotrimer; limits by convention (mouse RANKL ectodomain core)
Kd: 81 nM | koff: 0.023 s⁻¹ | kon: 300000 M⁻¹ s⁻¹

These reach a lower Kd. Values come first.

Kd: 67 nM | koff: 0.017 s⁻¹ | kon: 174000 M⁻¹ s⁻¹
B2: RANKL K194E/Q236H (ligand)
chain: B1 chain with Q79H
modifications: Homotrimer; limits by convention (mouse RANKL ectodomain core)

Kd: 29 nM | koff: 0.005 s⁻¹ | kon: 167000 M⁻¹ s⁻¹
B4: RANKL K194E/Q236H/F269Y (ligand)
chain: B1 chain with Q79H, F112Y
modifications: Homotrimer; limits by convention (mouse RANKL ectodomain core)
